Laboratory results: patent US10563181B2, “Molecular cloning and expression of cDNA encoding O-methyltransferase isolated from Mangifera indica” (COUNCIL OF SCIENTIFIC & INDUSTRIAL RESEARCH, priority 2015, dated 2020)
Like-named read-outs stand apart in the source and are kept apart here.

What was measured:
recombinant MiOMTS [1] = experiment: In vitro enzymatic assay of recombinant MiOMTS with candidate substrates and SAM as methyl group donor; type: biochemical, Mangifera indica; settings: 0.2 mM substrate, 0.01 mM SAM, 30° C. for 30 min; products identified by UHPLC-Orbitrap MS
Method: The complete ORF of MiOMTS cDNA was cloned in pGEX-4T vector and the protein was expressed as GST-tag fusion protein in E. coli BL21 (DE3) cells. The protein was purified using GST affinity chromatography and released from the tag using thrombin. […] The purified protein was assayed for its activity with furaneol, caffeic acid, catechol and protocatechuic aldehyde as substrates and S-adenosyl-L-metheonine (SAM) as methyl group donor. The methylation products of these substrates upon MiOMTS enzymatic reaction were identified and analysed on high resolution mass spectrometer. […] In contrast to furaneol and protocatechuic aldehyde, MiOMTS could not use caffeic acid and catechol as the methyl group acceptor.
(§1) The in vitro enzymatic assays were carried out in the lysis buffer containing appropriate amount of protein, 0.2 mM substrate and 0.01 mM S-adenosylmetheonine (SAM) in a final volume of 500 μl reaction. The reaction was incubated at 30° C. for 30 min. For the determination of optimum pH for the enzyme activity, the assays were performed in 50 mM citrate buffer (pH 4.0 and 5.0), 50 mM phosphate buffer (pH 6.0, 6.5, 7.0 and 7.5) and 50 mM Tris buffer (pH 8.0, 8.5 and 9.0) keeping other components in the assay same as above. Similarly, for optimum temperature the assays were performed at 15, 20, 25, 30, 35 and 40° C. Assay products were extracted twice with ethyl acetate; the organic layers were pooled, dried in a concentrator and constituted with methanol. An Accela™ ultra high performance liquid chromatography (UHPLC) system (ThermoFisher, Waltham, USA), coupled online via heated electrospray ionization source (HESI) with a Q-Exactive-Orbitrap mass spectrometer (ThermoFisher), was employed with 20 μL sample injection volume and the chromatograms were obtained by total ion monitoring in a positive ion mode. The products were separated and analysed on Hypercil GOLD C-18 reverse phase column (150 mm×3 mm i. d., particle size 5 μm, Thermo Scientific, Waltham, Mass., USA) with a linear gradient of 95% water acidified with 0.05% formic acid and 5% methanol to 80% methanol and 20% water with the flow rate of […]. The sample manager was maintained at 4° C. Identification of the substrates as well as products were done by comparing the retention time and molecular mass of authentic external standards [furaneol (CAS No. 3658-77-3), mesifuran (CAS No. 4077-47-8), protocatechuic aldehyde (CAS No. 139-85-5) and vanillin (CAS No. 121-33-5)] procured from Sigma Aldrich, USA.

MiOMTS transcripts = settings: 5DAH ethylene treated vs 20DAH conventionally ripened
Method: Quantitative real-time PCR was performed using Fast Start Universal SYBR Green master mix (Roche Inc. Indianapolis, Ind., USA) and elongation factor 1α as an endogenous control employing the primers mentioned earlier (Pandit et al., 2010). Transcripts of MiOMTS were amplified using primers;
Quantification was done by ViiA™ 7 Real-Time PCR System (Applied Biosystems, CA, USA) having thermal cycle programme of initial denaturation at 95° C. for 10 min with subsequent 40 cycles of 95° C. for 3 sec and 60° C. for 30 sec followed by a dissociation curve analysis of transcripts. […] The quantification was done for three independent biological replicates separately, each of which was represented by at least three technical replicates. […] The uniformity of expression across the tissues was monitored using elongation factor 1α (EF1α) gene as an endogenous control.
To get better understanding of synthesis of mesifuran during late ripening stages of Alphonso mango and its regulation at transcriptional level, the transcripts of MiOMTS were profiled during the conventional ripening of Alphonso mango. […] To further assess this at transcript level, the transcripts of MiOMTS were analyzed in the fruits which were subjected to the postharvest ethylene treatment.

recombinant MiOMTS [2] = experiment: Optimum pH and temperature for the activity of recombinant MiOMTS using furaneol as a substrate; type: biochemical, Mangifera indica
Method: In order to evaluate the optimum biochemical conditions for the activity of recombinant MiOMTS, assays were performed at varied pH and temperatures using furaneol as a substrate. […] In case of temperature, optimum activity was detected at 25° C., with retention of 60% activity at 30° C.
as §1

CC1=C(O)C(=O)C(C)O1 (centres unmarked) [furaneol, 4-hydroxy-2,5-dimethyl-3(2H)-furanone]
use of substrate as methyl group acceptor (methylation) by MiOMTS (recombinant MiOMTS [1]): successfully used for methylation

C=C [ethylene]
MiOMTS transcript abundance, fold higher than conventionally ripened fruits (MiOMTS transcripts; pulp): 19 fold | MiOMTS transcript abundance, fold higher than conventionally ripened fruits (MiOMTS transcripts; skin): 82 fold

O=C(O)/C=C/c1ccc(O)c(O)c1 [caffeic acid]
use of substrate as methyl group acceptor (methylation) by MiOMTS (recombinant MiOMTS [1]): could not use

Oc1ccccc1O [catechol]
use of substrate as methyl group acceptor (methylation) by MiOMTS (recombinant MiOMTS [1]): could not use

O=Cc1ccc(O)c(O)c1 [protocatechuic aldehyde]
use of substrate as methyl group acceptor (methylation) by MiOMTS (recombinant MiOMTS [1]): successfully used for methylation

B1: MiOMTS: O-methyltransferase enzyme protein from Mangifera indica, having SEQ ID No.3, recombinantly expressed in E. coli (protein)
chain: MGSLEVKTLLEGQAEVWQYMFGFADSMVLKSAVELRLADIIHSYGGPMSLSQIASKIDSASPNIPYLGRIMRMLARKGVFGAHRPSEGGDTTYGLTHISTWLRHDSELSLAPMILMENNLWQLAPWHYLSQCVKQGGIAFKKAHGCEMWDFASQNPEFNKLFNDALACTTKIVMRAFLSQYKEGFNNVRSLVDVGGGTGGELAEILKTYPHMKGINFDLPHVVATAPEYDGVSNVGGNMFDAIPNADVIFMKWILHDWSDEACVKILKNCRKAIPEKTGRVVLVEIVLQENGDNMFGNMDVVFDLLMFAHTTGGKERTEPEWKKLLEEGGFPRYNIINIPALPSIIEAYPL
modifications: O-methyltransferase enzyme protein sequence; O-methyltransferase peptide or enzyme sequence
optimum pH for activity (recombinant MiOMTS [2]): 7.0 | optimum temperature for activity (recombinant MiOMTS [2]): 25 °C | reduction in the activity (recombinant MiOMTS [2]; 20° C.): more than 50% | retention of activity (recombinant MiOMTS [2]; 30° C., relative to 25° C.): 60% | activity (recombinant MiOMTS [2]; 40° C.): complete inactivation | activity (recombinant MiOMTS [2]; pH 4): no activity was detected | activity (recombinant MiOMTS [2]; pH 5): no activity was detected | retention of activity (recombinant MiOMTS [2]; pH 6.0, relative to pH 7.0): 70% | retention of activity (recombinant MiOMTS [2]; pH 8.0, relative to pH 7.0): 90% | reduction in the activity (recombinant MiOMTS [2]; pH 8.5): more than 50% | activity (recombinant MiOMTS [2]; pH 9): no activity was detected
